In the supplement of paper PMC12042874:
± gives the uncertainty stated by the source.

Assay: amyloid nucleation score (Sup35N fusion, yeast selection) (log enrichment); library NNK1; higher = more nucleation; inactive = no reads after selection
Outline: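 Peptides of 20 random codons fused to Sup35N were expressed in psi-negative yeast, induced 24 hours with 100 μM copper sulfate, then grown 7 days at 30°C on medium lacking adenine and uracil. Input and output plasmid inserts were Illumina-sequenced. Nucleation score is the DiMSum log enrichment of output over input reads, centred on the mode score of non-aggregating sequences, excluding sequences with under 100 input reads. Random libraries had three technical output replicates.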

Substance | amyloid nucleation score
PGSCFVMCCDLDKRKGSADE | -0.559 ± 0.62
LEVYGQCDRVHCHSSR | -0.276 ± 0.5
TAVGSRGFPRNHLRPKNTSG | -0.309 ± 0.53
TFTFVFW | 3.46 ± 0.13
TLLYPYMVPLRRKSLWGAVR | 1.36 ± 0.35
MSGCLDDNANC | -0.382 ± 0.35
VSTSHCTSFVFNIYCKYDSR | 8.542 ± 0.052
NRTDKKDTLRWLFPT | 0.435 ± 0.81
RWYVEPSSMFLSRLDGLFYK | -0.702 ± 1.9
VWKDRPEMYSCGHCIEMRAE | 0.039 ± 0.37
LMTNKKNVMMRRIHTGVASN | 0.368 ± 0.97
LNCCRMGGVLS | 0.11 ± 0.42
IRLRPERDLGVAWLCIGCKR | -0.314 ± 1.2
KGWWKGLRARSQGPGVSDVW | -0.314 ± 0.57
ALCLKGSMNVEFMIRTSGFN | 0.705 ± 0.51
SRKKKIVITEPNHSSRHQSV | 0.003 ± 0.86
DSTILNSLSPVWPRSATGPS | -0.529 ± 0.63
HRMGPQVKHIHNIGESKQSE | 0.822 ± 0.88
WHASNFLTSSSHKMSSNWTS | 0.67 ± 0.48
TEGFNTANA | -0.34 ± 1.1
GGSMGHPGTLMERSYNLVVA | 0.951 ± 0.46
CCCISDHESNCDSDQSRLGF | 0.585 ± 0.36
SLGFIFTEILYIFIVAWFII | 0.198 ± 0.47
RCLTPVIRVIYFG | -0.13 ± 0.3
YWGTS | 0.971 ± 0.49
RRLTLYANFMRLEILSLNVN | 0.146 ± 0.43

Substance | amyloid nucleation score
TRVFSCDACRKN | inactive
SDAGARKIIFCFEIITQHPV | -0.235 ± 0.42
ANIHYL | 2.63 ± 0.12
GQTLALSYFTVLFSPMLNEW | 0.169 ± 1
FLLGSYILWECNHGSHHMSG | 0.06 ± 0.23
YTVSTRWRGVNIPYVKHAAL | 0.499 ± 0.25
VNYFARSGASKICML | -0.366 ± 0.88
VEFGSHVFYLKGRSDKAKYL | -0.283 ± 0.45
AVASMWPRGLALSRLVSLNA | 0.05 ± 0.47
ILKSSGICFDGLPTKFNL | 0.127 ± 0.25
YYPGSGFH | -0.531 ± 0.65
LCELQYAKWIMKLVYKTFTT | inactive
NVHVFRNRSEITFKRASSWE | 1.08 ± 0.9
LMYSVS | 0.434 ± 0.38
SSNFSPLTIVVYNFCI | 7.744 ± 0.051
HYVYRGQLRGHACKGWSYFG | 0.531 ± 0.51
LGRHLMILTYQYEEDFPKYR | 0.938 ± 0.16
NWILSLAGFYRSSKVSSCTT | 0.41 ± 0.67
WYPYTVSIPLIYVVSCIDEY | 5.91 ± 0.07
GFNKR | -0.991 ± 2.4
RWSLAWKIMCEL | 0.055 ± 0.3
RYNMPFYRDRRFCFFEKGLG | -0.077 ± 0.77
IKWANREALLLWVELGRLRW | -0.66 ± 0.84
SWQSVSSAISV | -0.234 ± 0.85
VHYWLVNSSTKRGRPFASAF | -0.231 ± 0.36
VFLVTIWRSIMVLWNTVW | -0.284 ± 0.47

Substance | amyloid nucleation score
NDLAKHLGFTVTF | 0.011 ± 0.28
LLRLFALLTLNNLV | -0.296 ± 0.31
PFLYIDSF | -1.2 ± 1.9
ISATCL | 0.858 ± 0.76
FDWGGTAYKKA | 1.01 ± 0.97
LSGMDTLGIVRCAVA | -0.325 ± 0.46
ATAHCWLRQESGEFGDLWIP | 0.276 ± 0.19
VGGNPN | 1.19 ± 0.98
LDLAGGKG | 1.74 ± 0.14
CMLSCFSDRAWIMQRSVCAC | 0.879 ± 0.65
GCKGGSATCSTRTWMCSWGG | 2.27 ± 0.12
SSYVPSCCYWAVWFCVRGKY | 1.58 ± 0.46
GIDTKDFFVAGMLGCVEGMD | 0.245 ± 0.7
ALRFFWDPFIDG | 0.388 ± 0.81
TYYKQYVLMYRALNFAGSWS | 1.21 ± 0.79
EDMWKTCTAV | 0.244 ± 0.37
TRNFKQK | -1.78 ± 1.8
TFVVELS | -1.64 ± 2.4
LGTIVVSSVGKLGIIMTRAE | 1.3 ± 0.15
AGRTILKIILQVLALLAPYK | -0.309 ± 1.4
YGCSVYTVCMF | 8.243 ± 0.071
SHPMDKRLWEKSYKAVGVCV | 0.174 ± 0.58
ASQRSQNCCIVESIDEVLFS | 0.85 ± 0.41
DWVVSCAYGFSSARNGGVCL | -0.039 ± 0.39
GMSPPSNSFFSFCFTGLVKF | 0.319 ± 0.61
TLHTKSGLNIMARYPMAERG | 1.31 ± 0.8

Substance | amyloid nucleation score
SRGLFCWWRSTWRGVL | -1.28 ± 2.4
AHGMYAEGVTWSALVSSRCE | 2.56 ± 0.11
WLLIRKGGVRFKIQYRHQHS | 1.73 ± 0.37
RVKYAGGPIGYLFCLWVLCW | -0.895 ± 1.5
NNDINFSDLFRCGERTYVFW | 2.24 ± 0.18
WVARVMCRKNSYSMLIMWIC | -0.102 ± 0.22
TDIFCP | -1.47 ± 1.7
NAFQRV | 0.6 ± 0.72
WSFLDWWIRSRSLITVCVVS | -0.348 ± 0.46
LTKRVGFDEMSLPHQDASSV | -0.289 ± 0.36
LYETMTCFWMRLWSFCGSPA | -0.033 ± 0.69
RWQAFGTELYGTSWSFREYG | 0.148 ± 0.47
FFFALFFQRSTTRGWLSGQL | 0.91 ± 0.62
KMWIRCVIGVRMLYPFARCG | -0.138 ± 0.49
KRFSSCLRRWAACNGESAAL | 0.412 ± 0.45
LENYDRGDSTRHIDCRLLFL | 0.275 ± 0.52
PSTTLFWLVMRKHILQHTRR | -0.215 ± 0.28
MGVVQCAKRQQRLLMQLTVL | 0.054 ± 0.93
AWDVAS | 0.967 ± 0.6
FTFYYCIRY | 0.673 ± 0.47
QTGQRFALKDSTSNSIPYLE | -0.607 ± 0.96
FQSARR | 0.575 ± 0.36
SIIYQVRRLCGSYVSILGSQ | 0.251 ± 0.69
DSSLCFGSYLWLVAMSLK | -0.489 ± 0.75
FFLMISKLAKWKGVARKTAL | -0.937 ± 2.1
VAFVLLTQVGGWRLGIWRRK | -1.09 ± 0.66

Substance | amyloid nucleation score
LALKYPSLISPKRWT | 0.688 ± 0.36
FNSYKGLIVQKYPSMTLN | 0.302 ± 1
RNASIRVTSQVCYVNS | 1.3 ± 0.27
NEVMRFLSTCCMWIIHTSKV | inactive
IINKS | -0.766 ± 2.4
FWHPLG | -0.342 ± 0.28
HLRRVMYLFAANCGPRPAND | -0.69 ± 0.96
AAAFYWLN | -1.2 ± 1.3
SWMSRKEENSGLILVAVYLV | 1.29 ± 0.76
FFLVRMCKSRDVTVTVGGSH | 1.53 ± 0.14
VGSSLDMPAPKRVGSEYCSV | 0.279 ± 0.66
SSGHSVRVDNKTGVWVWPVG | -0.329 ± 1.6
YNVVSSKNNTVRFVLFP | 4.31 ± 0.12
AVTCSPPGPMQGLTFLFMAL | -1.11 ± 1
YICEFMIRTMKQPWPSKGEG | 0.542 ± 0.32
FNFMVNRLMVKVGLVSWRQY | 0.029 ± 1.6
IFEWFVPLEWSV | 0.012 ± 1.4
LLDGYSLDNIGLEVGNASSN | 0.53 ± 0.41
PLNHNSY | 1.47 ± 0.51
VLTCKE | -1.55 ± 1.2
AGMTFRFLHEVSSSQSN | 3.06 ± 0.13
PMTTWYSVFCAEFL | 0.688 ± 0.32
ADVEVC | -0.005 ± 0.56
YEPEGIQSIWRCSAVRHAKA | -0.286 ± 1.9
GSRNNWKTPWSDNHGTLWRC | -0.298 ± 0.47
SGAVCIQALKVDTQCFADMI | -0.413 ± 0.38

Substance | amyloid nucleation score
LYNSGSTLI | 0.342 ± 0.61
LHLYIMS | inactive
HDKYTLIGPRH | -1.27 ± 1.2
RRLKETKT | inactive
VSEDVFLWVKLSLTAGSEGR | -0.973 ± 0.4
FWLNLPAWISFAMFVCIVYV | -0.132 ± 0.47
ARHSYN | inactive
FIRLLGSMV | 0.622 ± 0.84
VYFSSLVIFWYLFLYSFEYL | 0.689 ± 0.48
YMYQIG | -0.691 ± 1.7
SHLLLHSLWSDPGIIVDLYT | inactive
IGYCRGHAYKMRYFSVRWFV | -1.25 ± 1.7
GPFIVIPK | -0.149 ± 0.64
WLPFLVFCRGESYYRLDRSS | 2.42 ± 0.091
LNCGHYQIASGF | 0.393 ± 0.72
IYYTSWYINAYLCGHMPVRG | 2.52 ± 0.23
CSNEK | 0.319 ± 0.97
VFSSVGGETSYRCMGTASGT | -0.231 ± 0.46
LSSRHVAGYQEYLNDL | -0.88 ± 0.72
SNKSSSDIDCVYLENCSTSG | 1.43 ± 0.36
GKWFVKRGRIRSAENCIRLF | -0.785 ± 1.1
DLNCFAFVWVIIYTRDGWTI | -0.353 ± 0.3
CLVVTETANI | -0.578 ± 0.69
FVRVLTFPYPMNVFIRLSLA | inactive
IQFPRLGGDTTVCDYGHVAI | 1.32 ± 0.49
NSKRTGASLRIELRLQFRKR | -0.215 ± 0.39

Substance | amyloid nucleation score
DAGGYLQEIARTPFTVARQQ | 0.195 ± 0.35
FDLRLRWRVA | 0.295 ± 0.27
PGYQTSWWYMLKCKTSSLNY | 0.468 ± 0.47
CYVSS | -0.548 ± 0.53
PANIVAFGGLMSIPLVLPVL | -0.104 ± 0.4
HYHFDTACVWCDYSVHGNKD | 7.38 ± 0.057
EITWCF | 0.485 ± 0.72
MQGFHSW | inactive
IYCSCPSKQE | -0.075 ± 0.24
LRNDLVETSVLGA | 1.47 ± 0.54
YPLTSHYLLTR | 0.038 ± 0.64
LLVGMPPNIDM | -0.078 ± 0.41
RMLLENVSVKRR | 0.678 ± 0.66
PLCHWKA | -0.325 ± 0.53
RVVMLCLVCLFGVRGS | 0.827 ± 0.52
MYFCM | 6.7 ± 0.059
VLMRSEMESRFNEGRSTQGC | 0.361 ± 0.3
DCLWPLVSMFLVPLRASKVR | 0.128 ± 0.44
AMMPLVLNQVVFDVAALTNR | 7.68 ± 0.054
YYWCAHPSCYPSVY | 0.878 ± 0.58
